Data reported in patent publication US20240342207, “MODIFIED NUCLEIC ACID COMPOSITIONS AND ASSOCIATED METHODS FOR TREATMENT OF PHENYLKETONURIA” (BOARD OF REGENTS, THE UNIVERSITY OF TEXAS SYSTEM, published 2024).
Positions count from the first letter of the chain named.

Legend:
Settings in all cases: tags: His-tag, E. coli; stem-loop
[1] = target: T1, PAH Y417H (Homo sapiens, UniProt P00439 P00439:1-452, Y417H); experiment: EMSA; one of 13 of 17 binding mutants (identity from p198 list)
T1 sequence: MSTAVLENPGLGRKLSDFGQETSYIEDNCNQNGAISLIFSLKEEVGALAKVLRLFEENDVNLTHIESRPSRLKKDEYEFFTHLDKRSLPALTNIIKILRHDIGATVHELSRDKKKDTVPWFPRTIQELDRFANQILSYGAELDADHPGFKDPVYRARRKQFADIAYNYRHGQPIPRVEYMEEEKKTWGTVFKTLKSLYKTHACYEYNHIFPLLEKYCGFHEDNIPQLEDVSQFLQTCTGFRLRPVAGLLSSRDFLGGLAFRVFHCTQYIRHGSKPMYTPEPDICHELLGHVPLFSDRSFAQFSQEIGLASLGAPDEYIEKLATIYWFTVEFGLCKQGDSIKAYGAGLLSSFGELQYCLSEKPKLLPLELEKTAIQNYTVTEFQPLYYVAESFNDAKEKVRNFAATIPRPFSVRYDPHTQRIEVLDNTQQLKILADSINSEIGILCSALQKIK
Text: (§1) It was reasoned that supplementing lncRNAs might improve the catalytic activities of the PAH mutants, leading to reduced serum Phe concentrations and improved symptoms in patients with PKU. Scramble (Scr) and HULC mimics representing wild-type HULC nt. 181-201 and HULC A191G mutated sequences were designed for the following studies. 17 PAH mutants that were identified from patients with PKU and are known to affect the enzymatic activity of PAH (21, 22) were selected, and bacterially-expressed wild-type and mutant PAH (FIG. 10 and see FIG. S13A in Li et al. 2021) were collected. […] The denatured wild-type PAH proteins were included as a negative control.
(§2) RNA Electrophoretic Mobility Shift Assay (EMSA). The gel mobility shift assay was performed as previously described (42). Briefly, 500 ng recombinant His-tagged wild-type PAH or mutants were incubated with 0.035 μmol labeled probe in a RNA-protein binding buffer [(50 mM Tris-HCl 7.9, 10% glycerol, 100 mM KCl, 5 mM MgCl₂, 10 mM (3-ME, 0.1% NP40] for 30 min at 30° C. For cold RNA competition, 0.035 μmol radiolabeled RNA probes were first mixed with 7 μmol cold RNA competitors and then subjected to the gel shift assay.

[2] = target: T2, PAH Y414C (Homo sapiens, UniProt P00439 P00439:1-452, Y414C); experiment: as above
T2 sequence: T1 sequence with Y414C, H417Y
Text: as §1, §2

[3] = target: T3, PAH R408W (Homo sapiens, UniProt P00439 P00439:1-452, R408W); experiment: EMSA; one of 13 of 17 binding mutants; affinity not decreased
T3 sequence: T1 sequence with R408W, H417Y

[4] = target: T4, PAH TH63-64PN (Homo sapiens, UniProt P00439 P00439:1-452, T63P,H64N); experiment: EMSA; also decreased affinity in quantified assay
T4 sequence: T1 sequence with T63P, H64N, H417Y
Text: as §1, §2

CAAAAUGCAUAUGUAUCUUUG (ssRNA) [HULC 181-201 mimic]: binds [1]; binds [2]; binds [3]. CAAAAUGCAUAUGUAUCUUUG (ssRNA) [HULC 181-201 mimic]: no binding [4].
